Data from patent US20190002846A1, “POLYPEPTIDES HAVING DEMETHYLATING ACTIVITY” (Genencor International B.V., priority 2015, published 2019).

Key:
[1] = Demethylation of syringic acid (GC methanol, UHPLC/MSMS); type: biochemical
Description: Syringic acid (12 mM, 2.38 g/L) was incubated with PPO7 from Example 2 (1.2 μM, 0.048 g/L, 2% loading (w/w)) in 50 mM BisTris buffer pH 6.5 with 10 μM CuSO4. Blank prepared without the addition of enzyme was included. Incubations were performed in GC headspace vials with a total of 1 mL reaction volume in duplicate at room temperature for approximately 90 h. The reaction was stopped by adding 28 μL 1M HCl to lower the pH to ˜3. One of the replicates was analyzed by GC for the methanol formation. A calibration range of 0.23 to 11.6 mM methanol in buffer with HCl was included. The second replicate was analyzed using UHPLC and the formation 3,4-dihydroxy-5-methoxybenzoic acid was confirmed using MSMS (see FIG. 5).

[2] = target: T1, RAC incubated with LPMO9B (Thermothelomyces thermophilus, UniProt G2QCJ3); test: RAC hydrolysis assay with LPMO9B and PPO7 or AbTyr in the presence of phenolic reducing agents; type: biochemical, Myceliophthora thermophila; details: LPMO9B alone = 100%, or with added enzyme, pH 5.0, 50° C., 24 h
T1 construct: made in house; host or cells: Myceliophthora thermophila C1 strain W1L#100.1Δpyr5ΔAlp1
T1 sequence (G2QCJ3 19-323): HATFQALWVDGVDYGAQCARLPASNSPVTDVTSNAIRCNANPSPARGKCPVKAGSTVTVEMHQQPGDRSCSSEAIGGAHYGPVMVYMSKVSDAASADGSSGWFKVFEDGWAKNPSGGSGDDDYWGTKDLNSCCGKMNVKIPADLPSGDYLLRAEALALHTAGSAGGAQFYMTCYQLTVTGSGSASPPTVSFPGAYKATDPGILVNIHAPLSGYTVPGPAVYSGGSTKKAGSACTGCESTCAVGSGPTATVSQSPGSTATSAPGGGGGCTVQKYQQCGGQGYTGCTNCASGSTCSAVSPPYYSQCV
Description: Phenolic reducing agents were obtained from Sigma-Aldrich (St. Louis, Mo., USA). RAC was prepared as described above and dissolved in 50 mM phospate buffer (pH 5.0) to a final concentration of 1.5 mg/ml. Copper chloride was added to a final concentration of 2.5 μM and a phenolic reducing agent to a final concentration of 2 mM. LPMO9B (5 μg/ml) with or without PPO7 (5 μg/ml) or AbTyr (7.5 U/ml) were added and incubated for 24 h at 50° C. in a head-over-tail rotator in portions of 1 mL total volume (Stuart® rotator, Bibby Scientific LTD, Stone, UK) at 20 rpm. Products were analysed by HPAEC and MALDI-TOF MS as described previously. (Frommhagen M, Sforza S, Westphal A H, Visser J, Hinz S W, Koetsier M J et al. Discovery of the combined oxidative cleavage of plant xylan and cellulose by a new fungal polysaccharide monooxygenase. Biotechnology for Biofuels. 2015; 8:101. doi:10.1186/s13068-015-0284-1). The Activity denoted as Activity * represents total release of non-oxidized and C1-oxidized gluco-oligosaccharides from RAC incubated with LPMO9B in the presence of a phenolic reducing agent and with addition of either AbTyr or PPO7. […] Standard deviations were less than 2%.

[3] = Methanol formation by GC, lignin; type: biochemical; details: enzyme 0.5 g/L, 25° C., approx. 48 h
Description: Model compounds syringic acid, syringol, 1,3-dimethoxybenzene and 3,5-dimethoxybenzoic acid (12 mM) were incubated with PPO7 from Example 2 (2% loading (w/w)) in 50 mM BisTris buffer pH 6.5 with 10 μM CuSO4. For syringic acid and syringol PPO2 from Example 2 was included as a control. Lignin and lignin-derived compounds (10 g/L) were incubated with PPO7 from Example 2 (0.5 g/L, 5% loading (w/w)). PPO2 from Example 2 was included as a control and incubated using the same conditions. Blanks prepared without the addition of enzyme were included. Incubations were performed in GC headspace vials with a total of 1 mL reaction volume at 25° C. for approximately 48 h while shaking. The reaction was stopped by adding 28 μL 1M HCl to lower the pH to ˜3. Samples were analyzed by GC for methanol formation. A calibration range of 0.23 to 11.5 mM methanol in buffer with HCl was included.

[4] = Conversion of syringic acid, sinapic acid and syringol by crude PPOs, absorbance at 400 nm; type: biochemical; details: 4 mM substrate, crude PPO 8.2 μg/mL, pH 6.0 or 7.0, 50 μM CuSO4, room temperature, 2, 22 and 118 h
Description: Syringic acid, sinapic acid and syringol (4 mM) were incubated with crude PPO2, 4, 6 and 7 from Example 5 in 100 mM BisTris buffer pH 6.0 or 7.0 with 50 μM CuSO4. Crude PPOs were dosed on target protein with a final concentration of 8.2 μg/mL. Substrate blanks prepared without the addition of enzyme and enzyme blanks without the addition of substrate were included. Incubations were performed in microtiterplates with a total reaction volume of 150 μL at room temperature for approximately 120 h. After 2, 22 and 118 h absorbance at 400 nm was measured.

[5] = 12 mM syringic acid, enzyme 0.048 g/L, pH 6.5, 10 μM CuSO4, room temperature, approx. 90 h, blank 0

B1: PPO7: Myceliophthora thermophila C1 polyphenoloxidase with demethylating activity, mature form SEQ ID NO: 45 (protein, listed as Myceliophthora thermophila)
chain: NPMHKRWKPNAPRNPDFPLDEVDKLEESIMPNVEAWMSKRPAKYSNCTLENAGIRREWSDLSVDERKEYISAVLCLQSKPSKIPEGEVPGALSRFDDFVATHMTMAGQLHSPTNLFAAHRYFIHAYEKALREECGYKGYQPYMNYDRYADDPLNTPLFDGSDSSMSGNGGPYNYSGIPQPFPKPYNLIPPAGGGGCVTEGPFRDMVVSLGPKGGLFHDIPRNPRADGLGSNPRCLRRDVNKYSARGARANYTYSAIMDNPDIDSFYNRYMGMPQLKGDPYPWGLHSSGHYLIGGDPGGDFYCSPGDPLFYFHHGMLDRVWWIWQMQDPENRVQAVPGTNTMPMPPLMAANLESEAAATTTHKRAVNVSDLVVDLGWTAPPVKLVDLNEQLGGLGGELCYIYV
For B1, the “3,4-dihydroxy-5-methoxybenzoic acid concentration (UHPLC)” value [1, 5] was 1.61 mM, the “methanol concentration (GC)” value [1, 5] was 4.84 mM and the “syringic acid concentration (UHPLC)” value ([1]; 12 mM syringic acid, enzyme 0.048 g/L, pH 6.5, 10 μM CuSO4, room temperature, approx. 90 h, blank 10.86) was 3.02 mM. The “Demethylation of syringic acid (in words)” value ([1]; formation of 3,4-dihydroxy-5-methoxybenzoic acid and methanol) was “catalyzed the demethylation of syringic acid”, the “Activity: total release of non-oxidized and C1-oxidized gluco-oligosaccharides from RAC” value ([2]; reducing agent 3,4-dihydroxy-5-methoxybenzoic acid 2 mM) was 22% and the “Activity: total release of non-oxidized and C1-oxidized gluco-oligosaccharides from RAC” value ([2]; reducing agent 3,4-dihydroxy-5-methoxycinnamic acid 2 mM) was 116%. The “Activity: total release of non-oxidized and C1-oxidized gluco-oligosaccharides from RAC” value ([2]; reducing agent 3,4-dihydroxybenzoic acid 2 mM) was 139%, the “Activity: total release of non-oxidized and C1-oxidized gluco-oligosaccharides from RAC” value ([2]; reducing agent 3-hydroxy-4-methoxycinnamic acid 2 mM) was 7558% and the “Activity: total release of non-oxidized and C1-oxidized gluco-oligosaccharides from RAC” value ([2]; reducing agent 3-methylcatechol 2 mM) was 104%. For the same molecule, the “Activity: total release of non-oxidized and C1-oxidized gluco-oligosaccharides from RAC” value ([2]; reducing agent 4-allyl-2,4-methoxyphenol 2 mM) was 108%, the “Activity: total release of non-oxidized and C1-oxidized gluco-oligosaccharides from RAC” value ([2]; reducing agent 4-hydroxy-3-methoxyphenylactone 2 mM) was 131% and the “Activity: total release of non-oxidized and C1-oxidized gluco-oligosaccharides from RAC” value ([2]; reducing agent caffeic acid 2 mM) was 122%. The “Activity: total release of non-oxidized and C1-oxidized gluco-oligosaccharides from RAC” value ([2]; reducing agent coniferyl aldehyde 2 mM) was 562%, the “Activity: total release of non-oxidized and C1-oxidized gluco-oligosaccharides from RAC” value ([2]; reducing agent ferulic acid 2 mM) was 231% and the “Activity: total release of non-oxidized and C1-oxidized gluco-oligosaccharides from RAC” value ([2]; reducing agent gallic acid 2 mM) was 124%. The “Activity: total release of non-oxidized and C1-oxidized gluco-oligosaccharides from RAC” value ([2]; reducing agent guaiacol 2 mM) was 5143%, the “Activity: total release of non-oxidized and C1-oxidized gluco-oligosaccharides from RAC” value ([2]; reducing agent hesperidin 2 mM) was 771% and the “Activity: total release of non-oxidized and C1-oxidized gluco-oligosaccharides from RAC” value ([2]; reducing agent homovanillic acid 2 mM) was 580%. The “Activity: total release of non-oxidized and C1-oxidized gluco-oligosaccharides from RAC” value ([2]; reducing agent vanillic acid 2 mM) was 495%, the methanol ([3]; Corn stover BioLignin 10 g/L, blank 0) was 0.27 mM and the methanol ([3]; Wheat straw BioLignin 10 g/L, blank 0.10) was 0.28 mM. The “Conversion of substrates (absorbance at 400 nm)” value [4] was “able to convert syringic acid, sinapic acid and syringol”.
